Results published in publication PMC12670994.
“And” between values parts separate entries of the source, which are not always exact repeats. Identical values can stand only once.

Key:
[1] = biological target: SARS-CoV-2 spike on Omicron pseudovirus (GFP-expressing) (SARS-CoV-2 Omicron) (UniProt P0DTC2); experiment: flow cytometry, bead-bound aptamer; conditions: 5' hexynyl-iSp18-iSp18-iSp18 (PEG spacer)
[2] = biological target: SARS-CoV-2 spike on Omicron pseudovirus (GFP-expressing) (SARS-CoV-2 Omicron) (UniProt P0DTC2); experiment: flow cytometry, bead-bound aptamer

Sequence	Kd [1]	Kd ([2]; 5' hexynyl-iSp18-iSp18-iSp18 (PEG spacer))	Kd ([2]; 5' hexynyl)
ATCCAGAGTGACGCAGCACCGACCTTGTGCTTTGGGAGTGCTGGTCCAAGGGCGTTAATGGACACGGTGGCTTAGT [Omicron PEG36 Particle Aptamer]	0.011 pM and 0.017 pM and 0.073 pM	0.007 pM	–
TTTTTATCCAGAGTGACGCAGCACCGACCTTGTGCTTTGGGAGTGCTGGTCCAAGGGCGTTAATGGACACGGTGGCTTAGT [Omicron Particle Aptamer]	–	–	0.01 pM
